This note sets out measurements from US20240216484A1.

By Kd is commonly meant a measure of binding affinity in units of concentration. A word on the koff: it is the rate constant with which the complex falls apart. By kon is commonly meant the rate constant with which the complex forms.

In this test the target is SARS-CoV-2 spike protein, extracellular domain (1-1213), recombinant from HEK293 cells (SARS-CoV-2) (UniProt P0DTC2).

As for “HZI 2-09 (Anlec in TBS; lectin batch isolated from bromelain)”, the Kd was found to be 8.25 µM, the koff came to 0.003 s⁻¹ and the kon came to 331 M⁻¹ s⁻¹.
